We go through 12 molecules from patent publication US20080020978A1 (Amgen, published 2008).

Square brackets hold non-standard residues; d marks the D form. hArg = N=C(N)NCCCC[C@H](N)C(=O)O; Cit = NC(=O)NCCC[C@H](N)C(=O)O; Phg = N[C@H](C(=O)O)c1ccccc1

This test concerns the target CGRP1 receptor (CRLR/RAMP1 complex) of human neuroblastoma SK-N-MC cells (human, UniProt Q16602 23-461; O60894 27-148). Nature of the test: cell-based or functional assay.

Chain of CGRP1 receptor (CRLR/RAMP1 complex) of human neuroblastoma SK-N-MC cells (Q16602 23-461, chain 1 of 2): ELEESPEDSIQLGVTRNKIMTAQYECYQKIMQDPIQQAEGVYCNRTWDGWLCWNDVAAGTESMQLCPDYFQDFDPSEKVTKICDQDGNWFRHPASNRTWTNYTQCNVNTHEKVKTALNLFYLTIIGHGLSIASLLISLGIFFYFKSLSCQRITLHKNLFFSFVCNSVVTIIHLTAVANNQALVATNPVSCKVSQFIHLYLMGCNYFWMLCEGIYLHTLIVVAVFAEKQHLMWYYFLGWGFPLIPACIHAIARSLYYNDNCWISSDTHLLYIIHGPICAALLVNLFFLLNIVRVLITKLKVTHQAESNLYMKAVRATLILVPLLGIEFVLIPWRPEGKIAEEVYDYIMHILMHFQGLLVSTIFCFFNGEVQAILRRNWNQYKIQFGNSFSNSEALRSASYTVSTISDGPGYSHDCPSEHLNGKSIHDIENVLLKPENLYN
Chain of CGRP1 receptor (CRLR/RAMP1 complex) of human neuroblastoma SK-N-MC cells (O60894 27-148, chain 2 of 2): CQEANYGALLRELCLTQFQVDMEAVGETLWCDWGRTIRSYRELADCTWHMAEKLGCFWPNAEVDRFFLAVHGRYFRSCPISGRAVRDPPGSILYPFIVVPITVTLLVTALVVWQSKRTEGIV

B1: SEQ ID NO 918 (peptide)
peptide: Ac-WVTH[Cit]LAGLLS[Cit]SGGVVRKNFVPTDVGPKAF-NH2
SMILES: CC(=O)N[C@@H](Cc1c[nH]c2ccccc12)C(=O)N[C@H](C(=O)N[C@H](C(=O)N[C@@H](Cc1c[nH]cn1)C(=O)N[C@@H](CCCNC(N)=O)C(=O)N[C@@H](CC(C)C)C(=O)N[C@@H](C)C(=O)NCC(=O)N[C@@H](CC(C)C)C(=O)N[C@@H](CC(C)C)C(=O)N[C@@H](CO)C(=O)N[C@@H](CCCNC(N)=O)C(=O)N[C@@H](CO)C(=O)NCC(=O)NCC(=O)N[C@H](C(=O)N[C@H](C(=O)N[C@@H](CCCNC(=N)N)C(=O)N[C@@H](CCCCN)C(=O)N[C@@H](CC(N)=O)C(=O)N[C@@H](Cc1ccccc1)C(=O)N[C@H](C(=O)N1CCC[C@H]1C(=O)N[C@H](C(=O)N[C@@H](CC(=O)O)C(=O)N[C@H](C(=O)NCC(=O)N1CCC[C@H]1C(=O)N[C@@H](CCCCN)C(=O)N[C@@H](C)C(=O)N[C@@H](Cc1ccccc1)C(N)=O)C(C)C)[C@@H](C)O)C(C)C)C(C)C)C(C)C)[C@@H](C)O)C(C)C
Regarding B1, the “Peptide IC50” value is 1.48 nM.

B2: SEQ ID NO 925 (peptide)
peptide: Ac-WVTH[hArg]LAGLLS[Cit]SGGVV[hArg]KNFVPTDVGPFA[Phg]-NH2
SMILES: CC(=O)N[C@@H](Cc1c[nH]c2ccccc12)C(=O)N[C@H](C(=O)N[C@H](C(=O)N[C@@H](Cc1c[nH]cn1)C(=O)N[C@@H](CCCCNC(=N)N)C(=O)N[C@@H](CC(C)C)C(=O)N[C@@H](C)C(=O)NCC(=O)N[C@@H](CC(C)C)C(=O)N[C@@H](CC(C)C)C(=O)N[C@@H](CO)C(=O)N[C@@H](CCCNC(N)=O)C(=O)N[C@@H](CO)C(=O)NCC(=O)NCC(=O)N[C@H](C(=O)N[C@H](C(=O)N[C@@H](CCCCNC(=N)N)C(=O)N[C@@H](CCCCN)C(=O)N[C@@H](CC(N)=O)C(=O)N[C@@H](Cc1ccccc1)C(=O)N[C@H](C(=O)N1CCC[C@H]1C(=O)N[C@H](C(=O)N[C@@H](CC(=O)O)C(=O)N[C@H](C(=O)NCC(=O)N1CCC[C@H]1C(=O)N[C@@H](Cc1ccccc1)C(=O)N[C@@H](C)C(=O)N[C@H](C(N)=O)c1ccccc1)C(C)C)[C@@H](C)O)C(C)C)C(C)C)C(C)C)[C@@H](C)O)C(C)C
Turning to B2, the “Peptide IC50” value stood at 6.78 nM. In the case of WVTHXLAGLLSXSGGVVRKNFVPTDVGXFAF (Ac-WVTH[Cit]LAGLLS[Cit]SGGVVRKNFVPTDVG[Oic]FAF-NH2) [SEQ ID NO 920], the “Peptide IC50” value is 0.85 nM.

B3: PEG-peptide of SEQ ID NO 926 (peptide)
peptide: WVTHXLAGLLSXSGGVVXKNFVPTDVGPXAF
modifications: Ac-WVTH[hArg]LAGLLS[Cit]SGGVV[hArg]KNFVPTDVGP[2-Nal]AF-NH2; PEG-conjugated (Table 2C: in most cases at Lys^25)
As for B3, the “PEG-peptide IC50” value was determined as 2.39 nM.

B4: PEG-peptide of SEQ ID NO 927 (peptide)
peptide: WVTHXLAGLLSXSGGVVXKNFVPTDVGPXAF
modifications: Ac-WVTH[Cit]LAGLLS[Cit]SGGVV[hArg]KNFVPTDVGP[1-Nal]AF-NH2; PEG-conjugated (Table 2C: in most cases at Lys^25)
Turning to B4, the “PEG-peptide IC50” value was 2.54 nM. For the molecule WVTHXLAGLLSXSGGVVXKNFVPTDVGPXAF (Ac-WVTH[Cit]LAGLLS[Cit]SGGVV[hArg]KNFVPTDVGP[1-Nal]AF-NH2) [SEQ ID NO 927], the “Peptide IC50” value was 1.28 nM.

Take WVTHXLAGLLSXSGGVVXKNFVPTDVGPXAF (Ac-WVTH[hArg]LAGLLS[Cit]SGGVV[hArg]KNFVPTDVGP[2-Nal]AF-NH2) [SEQ ID NO 926]: the “Peptide IC50” value is 0.88 nM. As for WVTHXLAGLLSXSGGVVRKNFVPTDVGPFAX (Ac-WVTH[Cit]LAGLLS[Cit]SGGVVRKNFVPTDVGPFA[pI-Phe]-NH2) [SEQ ID NO 923], the “Peptide IC50” value was 2.24 nM. Same read-out and setting: in the case of WVTHXLAGLLSXSGGVVRKNXVPTDVGPFAX (Ac-WVTH[Cit]LAGLLS[Cit]SGGVVRKN[pI-Phe]VPTDVGPFA[pI-Phe]-NH2) [SEQ ID NO 922] it was 2.21 nM. Still for that read-out and setting: in the case of WVTHXLAGLLSXSGGVVRKNFVXTDVGXFAF (Ac-WVTH[Cit]LAGLLS[Cit]SGGVVRKNFV[Oic]TDVG[Oic]FAF-NH2) [SEQ ID NO 921] it was 0.93 nM; in that of WVTHXLAGLLSXSGGVVXKNFVPTDVGPXAF (Ac-WVTH[hArg]LAGLLS[Cit]SGGVV[hArg]KNFVPTDVGP[1-Nal]AF-NH2) [SEQ ID NO 924], 2.18 nM; in that of WVTHXLAGLLSXSGGVVXKNXVPTDVGPXAF (Ac-WVTH[Cit]LAGLLS[Cit]SGGVV[hArg]KN[pI-Phe]VPTDVGP[pI-Phe]AF-NH2) [SEQ ID NO 928], 1.16 nM.
